From publication doi:10.1101/2020.05.06.080432

How the values were obtained:
Assay in all cases: MST
[1] = target: His6-GlnA1 (Methanosarcina mazei) (UniProt Q8PY99)
[2] = target: His6-GlnK1 (Methanosarcina mazei) (UniProt Q8PYW7)
[3] = target: synthesized sP26 (Davids Biotechnologie), nt-647-NHS-labeled (Methanosarcina mazei)

Molecule | Kd [1] [nM] | Kd [2] [nM] | Kd [3] [nM]
His6-sP26 (natural protein) | 45000 | 1400 | –
His6-GlnA1 (enzyme) MVQMKKCTTKEDVLEAVKERDVKFIRTQFTDTLGIIKSWAIPAEQLEEAFENGVMFDGSSIQGFTRIEESDMKLALDPSTFRILPWRPATGAVARILGDVYLPDGNPFKGDPRYVLKTAIKEAEKMGFSMNVGPELEFFLFKLDANGNPTTELTDQGGYFDFAPLDRAQDVRRDIDYALEHMGFQIEASHHEVAPSQHEIDFRFGDVLCTADNVVTFKYVVKSIAYHKGYYASFMPKPLFGVNGSGMHSNQSLFKDGKNVFYDPDTPTKLSQDAMYYIGGLLKHIREFTAVTNPVVNSYKRLVPGYEAPVYISWSAQNRSSLIRIPATRGNGTRIELRCPDPACNPYLAFALMLRAGLEGIKNKIDPGEPTNVNIFHLSDKEREERGIRSLPADLKEAIDEMKGSKFVKEALGEHVFSHYLCAKEMEWDEYKAVVHPWELSRYLSML | – | – | 76
His6-GlnK1 (natural protein) MVAMKYVIAMIRPERLDAVKRELQKIEVSRLTVSSVSGYGAQKGYMEIYRAMEYDANLLEKIKIEIAVNDEFLEPTIEAIKTGAKGSDGYVGSGKIFVLPLENVIRIRTNETGPEAI | – | – | 47
